Biological target: MHC class 1 molecules on the target cells
Assay: cell-based or functional assay

## monoclonal antibody W6/32 (anti-pan class 1 MHC monoclonal antibody; DAKO)
  percent lysis of Volle EBV-LCLs by SKEM NK lines 2, 6 and 7 at a 10:1 E/T ratio after preculture of the targets with W6/32: > 80%
